Results on one molecule are retold here after US20180186880A1.

This test addresses B7-H3 ECD (extracellular domain of B7-H3) (UniProt Q5ZPR3). The test is described as follows: adsorption ELISA on B7-H3 ECD, serial dilutions of purified mAb, estimate of binding affinity.

B1: TRL4542 (antibody, V domains shown)
VH: QVQLVESGGDLVQPGESLRLSCAASGFIFSDAWMVWVRQAPGKGLEWVGRIKTNGDGGTTDLTEPVKGRFTISRDDSKNMVYLQMNNLRTEDTAIYYCTTAPGFWGQGTLVTVSS
VL: DIEMTQSPDSLAVSLGERATINCKSSHNLLYKSNNKNYLAWSQQKPGQPPRLLIYWASTRDSGVPDRFSGSGSGTDFTLTISSLQAEDVAVYYCHQYYGTKWTFGQGTRVEIKR
In the case of B1, the Affinity was 5 nM.
